{
  "source": "patent US20090111098A1",
  "about": "“REPORTER GENE ASSAY” (Shionogi & Co., Ltd., priority 2005, published 2009)",
  "tested_on": "IL-4 regulatory element (STAT6)",
  "test": "Confirmation of transcriptional regulatory activity: IL-4 stimulation of reporter-transfected HeLa cells, HTRF ratio value",
  "assay_type": "cell-based, human",
  "details": "HeLa cells transfected with reporter plasmid; IL-4 0-100 ng/ml, 3-48 hours",
  "protocol": "HeLa cells (cells deposited with ATCC) were dispersed at a density of 1.2×10^5 cells/ml in a medium (MEM medium containing 10% fetal bovine serum, 100 units/ml penicillin G, 100 μg/ml streptomycin) and then put in a volume of 100 μl per well on a 96-well tissue culture plate. After 24 hours, 20 μg of the reporter plasmid prepared in Example 1, and 60 μl FuGENE6 (Roche), were added to 2 ml FBS-free medium, then left at room temperature for 20 minutes, and added in a volume of 5 μl to each well, followed by incubation for 24 hours to transfect the cells with the reporter plasmid.\nAfter the culture supernatant of the cells was removed, 100 μl of IL-4 diluted with a medium was added at final concentrations of 0, 4, 20 and 100 ng/ml respectively to the respective wells and cultured for 3, 6, 24 and 48 hours. After culture, a cell lysis buffer (Tris buffered physiological saline containing 1% Triton X-100, 5 mM EDTA and a protease inhibitor cocktail) was added in a volume of 100 μl to each well and left at room temperature for 1 hour. […] After the reaction was finished, the fluorescence intensity of each well at 665 nm was measured with a time-resolved fluorescence microplate reader (Rubystar, BMG Labtechnologies). The measurement value was expressed as the ratio value to the fluorescence intensity of cryptate at 620 nm.",
  "data": [
    {"molecule": "IL-4: cytokine that binds IL-4 receptors and activates JAK1/JAK3 and transcription factor STAT6 (protein, UniProt P05112 25-153, looked up) Interleukin-4: HKCDITLQEIIKTLNSLTEQKTLCTELTVTDIFAASKNTTEKETFCRAATVLRQFYSHHEKDTRCLGATAQQFHRHKQLIRFLKRLDRNLWGLAGLNSCPVKEANQSTLENFLERLKTIMREKYSKCSS", "values": [
      {"measurement": "increase in ratio value by stimulation with IL-4", "result": "about 10 fold"}
    ]}
  ]
}
